From US20250082608A1, “TREATMENT AND PREVENTION OF GLOMERULAR DISEASE” (Singapore Health Services PTE LTD., priority 2021, published 2025)
“Also recorded” adds a separate entry of the source.

Tests used:
[1] = system: rheumatoid synovial cells; conditions: upon treatment; cited from earlier work
Col4a3−/− mice [2] = assay: Lifespan study in Col4a3−/− mice, anti-IL11 and ramipril alone or in combination, Example 3; format: in vivo, mouse; conditions: X203 20 mg/kg twice a week, ramipril 10 mg/kg 6 days/week, from 6 weeks of age; for mean percentage lifespan extension: over lifespan of untreated Col4a3−/− mice
Experimental: Col4a3^−/− (Col4a3^tm1Dec) mice were housed as described in Example 2.2. For lifespan studies, the mice were intraperitoneally administered either anti-IL11 (X203; twice a week, 20 mg/kg) or IgG isotype control (11 E10; twice a week, 20 mg/kg) alone or in combination with ramipril (10 mg/kg; 6 days/week) starting from 6 weeks of age, until death ensued.

Col4a3−/− mice [3] = conditions: cited from earlier work
129-Col4a3^tm1Dec/J mice = assay: Survival of mice homozygous for Col4a3^tm1Dec (mouse model of Alport syndrome), Example 1; format: in vivo; conditions: 20 mg/kg i.p. biweekly from 6 weeks of age until mortality
From the text: 129-Col4a3^tm1Dec/J mice were obtained from The Jackson Laboratory (Stock No:002908; COL4A3 KO). The mice comprise the Col4a3^tm1Dec mutation described e.g. in Cosgrove et al., Genes Dev. (1996) 10:2981-2992, which is hereby incorporated by reference in its entirety. 129-Col4a3^tm1Dec/J mice comprise a targeted mutation to Col4a3, resulting in progressive glomerulonephritis with microhematuria and proteinuria, and mice homozygous for the mutation typically die at about 8.5 weeks.
From 6 weeks of age, mice homozygous for the Col4a3^tm1Dec mutation were administered biweekly by intraperitoneal injection of 20 mg/kg of Enx203, or an isotype-matched control antibody, until mortality.

Col4a3−/− mice [4] = assay: Treatment study in Col4a3−/− mice: body weight and kidney weight; format: in vivo, mouse
Experimental: (§1) Col4a3^−/− (Col4a3^tm1Dec) mice were purchased from The Jackson Laboratory (https://www.jax.org/strain/002908). Mice were housed in temperatures of 21-24° C. with 40-70% humidity on a 12 h light/12 h dark cycle and provided with food and water ad libitum. For treatment study, Col4a3^−/− were administered 20 mg/kg of anti-IL11 (X203) or IgG isotype control (11 E10) by intraperitoneal (IP) injection starting from 6 weeks of age twice a week for 2.5 weeks; wild-type littermates were used as controls. Mice were sacrificed for blood and kidney collection when they were 8.5-week-old. For lifespan study, IgG/X203 was administered to 6-week-old Col4a3^−/− (2×/week) until death ensued.
Over recent years, antibodies that inhibit IL11 signaling in mouse and human cells have been developed^15,17. One of these neutralizing IL11 antibodies (X203) or an IgG control were administered to 6-week-old Col4a3^−/− mice, the time point when initiation of ramipril has proven ineffective^6, and examined renal pathologies at 8.5 weeks of age, as compared to age-matched wild-type controls (FIG. 3A).

Col4a3−/− mice [5] = assay: Treatment study in Col4a3−/− mice: renal fibrosis (total renal collagen content, Masson's Trichrome staining); format: in vivo, mouse; conditions: 20 mg/kg 2x/week for 2.5 weeks from 6 weeks of age; vs IgG
Experimental: as §1
Kidney tissues were fixed for 48 hours at RT in 10% neutral-buffered formalin (NBF), dehydrated, embedded in paraffin, and sectioned at 7 μm. Transverse kidney sections were then stained with Masson's Trichrome according to standard protocol. Images of the sections were captured by light microscopy and blue-stained fibrotic areas were semi-quantitatively determined with Image-J software (color deconvolution-Masson Trichrome) from the whole kidney area (100×field, n=4 kidneys/group). Treatment and genotypes were not disclosed to investigators performing the histology and generating semi-quantitative readouts.

Col4a3−/− mice [6] = assay: Treatment study in Col4a3−/− mice: renal mRNA expression by qPCR; format: in vivo, mouse
Experimental: as §1
Total RNA was extracted from snap-frozen kidney tissues using Trizol (Invitrogen) followed by RNeasy column (Qiagen) purification. cDNAs were synthesized with iScript™ cDNA synthesis kit (Bio-Rad) according to manufacturer's instructions. Gene expression analysis was performed on duplicate samples with either TaqMan (Applied Biosystems) or fast SYBR green (Qiagen) technology using StepOnePlus™ (Applied Biosystem) over 40 cycles. Expression data were normalized to GAPDH mRNA expression and fold change was calculated using […]. The sequences of specific TaqMan probes and SYBR green primers are available upon request.

Col4a3−/− mice [7] = assay: Treatment study in Col4a3−/− mice: Western blot of kidney protein extracts; format: in vivo, mouse; conditions: vs IgG
Experimental: as §1
Western blot was carried out on total protein extracts from mouse kidney tissues. Kidneys were lysed in radioimmunoprecipitation assay (RIPA) buffer containing protease and phosphatase inhibitors (Thermo Scientifics), followed by centrifugation to clear the lysate. Protein concentrations were determined by Bradford assay (Bio-Rad). Protein lysates were separated by SDS-PAGE, transferred to PVDF membrane, and subjected to immunoblot analysis for various antibodies as outlined in the main text, figures, or and/or figure legends. Proteins were visualized using the ECL detection system (Pierce) with the appropriate secondary antibodies: anti-rabbit HRP or antimouse HRP.

Col4a3−/− mice [8] = assay: Treatment study in Col4a3−/− mice: Wilms' Tumor 1 immunohistochemistry (podocytes); format: in vivo, mouse; conditions: blinded quantification; vs IgG, P=0.0002
Experimental: as §1
Kidneys were fixed in 10% neutral-buffered formalin (NBF), paraffinized, cut into 7 μm sections, incubated with primary antibodies overnight and visualized using an ImmPRESS HRP anti-rabbit IgG polymer detection kit (MP-7401, Vector Laboratories) with ImmPACT DAB Peroxidase Substrate (SK-4105, Vector Laboratories). Quantification of WT^+ve cells were performed in a blinded fashion from 4 images (200×field)/kidney (n=3-4 kidneys/group).

Col4a3−/− mice [9] = assay: Treatment study in Col4a3−/− mice: renal function (BUN, serum creatinine, urinary albumin:creatinine) by colorimetric assays/ELISA; format: in vivo, mouse; conditions: study end, 8.5 weeks of age; X203 from week 6
Experimental: as §1
The levels of blood urea nitrogen (BUN) and creatinine in mouse serum were measured using Urea Assay Kit (ab83362, Abcam) and Creatinine Assay Kit (ab65340, Abcam), respectively. Urine albumin and creatinine levels were measured using Mouse Albumin ELISA kit (ab108792, Abcam) and Creatinine Assay Kit (ab204537, Abcam), respectively. All ELISA and colorimetric assays were performed according to the manufacturer's protocol.

Col4a3−/− mice [10] = assay: Lifespan study in Col4a3−/− mice, Example 2; format: in vivo, mouse
Experimental: as §1
Statistical analyses were performed using GraphPad Prism software (version 8). Statistical significance between control and experimental groups were analysed by twosided Student's t tests or by one-way ANOVA as indicated in the figure legends. P values were corrected for multiple testing according to Tukey when several conditions were compared to each other within one experiment. Comparison analysis for two parameters from two different groups were performed by two-way ANOVA. Survival curves were analyzed by Gehan-Breslow-Wilcoxon test. The criterion for statistical significance was P<0.05.

IL-11Rα = target: T1, IL-11Rα (Homo sapiens, UniProt Q14626); conditions: low affinity; cited from earlier work
T1 sequence (Q14626 23-422): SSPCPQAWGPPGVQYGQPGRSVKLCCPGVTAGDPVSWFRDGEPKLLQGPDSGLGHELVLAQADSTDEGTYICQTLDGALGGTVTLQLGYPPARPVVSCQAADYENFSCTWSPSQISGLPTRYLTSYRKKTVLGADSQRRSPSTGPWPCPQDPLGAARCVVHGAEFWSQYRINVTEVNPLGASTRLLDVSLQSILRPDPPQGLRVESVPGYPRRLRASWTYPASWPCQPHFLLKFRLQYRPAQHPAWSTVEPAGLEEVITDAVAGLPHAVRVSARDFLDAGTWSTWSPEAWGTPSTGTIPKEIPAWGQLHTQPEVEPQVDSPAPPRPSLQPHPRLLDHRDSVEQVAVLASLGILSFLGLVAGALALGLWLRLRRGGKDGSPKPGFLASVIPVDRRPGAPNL

## COc1ccc2c(c1)c(CC(=O)O)c(C)n2C(=O)c1ccc(Cl)cc1 [indomethacin, reference compound]
[1]
  expression of IL-11: reduction in the expression of IL-11

## interferon-gamma (IFNγ): interferon-gamma
[1]
  expression of IL-11: reduction in the expression of IL-11

## CCOC(=O)[C@H](CCc1ccccc1)N[C@@H](C)C(=O)N1[C@H](C(=O)O)C[C@@H]2CCC[C@@H]21 [ramipril]
Col4a3−/− mice [2]
  improvement of median survival over untreated mice: 14 days
  mean percentage lifespan extension: 25.40%
Col4a3−/− mice [3]; treatment delayed until after proteinuria was established (6-week-old mice)
  beneficial effect of delayed treatment: no beneficial effect; also recorded: ineffective
Col4a3−/− mice [3]; treatment of 4-week-old mice, prior to onset of proteinuria and tubulointerstitial fibrosis
  kidney dysfunction and lifespan: attenuated kidney dysfunction and prolonged lifespan

B1: Enx203: mouse anti-mouse IL-11 IgG, neutralizing; VH SEQ ID NO:22, VL SEQ ID NO:23 (antibody, V domains shown)
VH: EVQLQQSGPELVKPGASVKIPCKASGYTFTDYNMDWVKQSHGKSLEWIGDINPHNGGPIYNQKFTGKATLTVDKSSSTAYMELRSLTSEDTAVYYCARGELGHWYFDVWGTGTTVTVSS
VL: DIVLTQSPASLAVSLGQRATISCRASKSVSTSGYSYIHWYQQKPGQPPKLLIYLASNLDSGVPARFSGSGSGTDFTLNIHPVEEEDAATYYCQHSRDLPPTFGGGTKLEIK
129-Col4a3^tm1Dec/J mice
  increase in survival relative to mice treated with isotype-matched control antibody: up to 40%
Col4a3−/− mice [4]; 20 mg/kg 2x/week for 2.5 weeks from 6 weeks of age, vs IgG
  kidney mass (kidney weight): preserved kidney mass
Col4a3−/− mice [4]; 20 mg/kg i.p. 2x/week for 2.5 weeks from 6 weeks of age, end of study, IgG control 30%, P=0.0003
  total body weight loss as a percentage of starting body weight: 17%
Col4a3−/− mice [5]
  kidney fibrosis by biochemical and histological assessments: reduced severity of renal fibrosis; also recorded: significantly less kidney fibrosis
Col4a3−/− mice [6]; mRNA, 20 mg/kg 2x/week for 2.5 weeks from 6 weeks of age, vs IgG
  renal levels of extracellular matrix genes (Col1a1, Col1a2, Col3a1, Fn), Acta2 and pro-fibrotic factors (Il11, Tgfb1): all reduced
Col4a3−/− mice [6]; renal mRNA
  indicators of tubule damage (Kim1 and Ngal): restored by X203 administration towards the levels seen in wildtype mice
Col4a3−/− mice [6]; renal mRNA, vs IgG
  Tnfα expression: reduced Tnfα expression
  proinflammatory interleukins (Il6, Il1b) and CC chemokines (Ccl2, Ccl5): equally diminished
Col4a3−/− mice [7]; 20 mg/kg 2x/week for 2.5 weeks from 6 weeks of age
  ERK and STAT3 phosphorylation in kidneys: largely reduced; also recorded: largely diminished
Col4a3−/− mice [7]; Western blot
  TGFβ upregulation in the kidneys: significantly reduced the degree of TGFβ upregulation
Col4a3−/− mice [7]; kidney Western blot (cleaved Caspase 3)
  Caspase 3 activation: reduced
Col4a3−/− mice [7]; kidney, reduction seen on transcripts
  alpha-smooth muscle actin (αSMA) and fibronectin protein: confirmed at the protein level
Col4a3−/− mice [7]; kidney
  podocyte markers WT1 and Podocin by immunoblotting: restored towards normal; also recorded: Preservation of podocytes
Col4a3−/− mice [8]
  number of WT1-positive cells (podocytes): restored towards normal; also recorded: restoration of podocytes
Col4a3−/− mice [9]
  serum blood urea nitrogen (BUN): improved renal function; also recorded: markedly lowered
  serum creatinine (Cr): improved renal function; also recorded: markedly lowered
  urinary albumin:creatinine ratio (ACR): reduced albuminuria; also recorded: markedly lowered
Col4a3−/− mice [10]; 20 mg/kg 2x/week from 6 weeks of age until death, IgG control 62.5 days, P=0.0015
  median lifespan: 88.5 days
Col4a3−/− mice [10]; from 62.5 to 88.5 days, vs IgG
  extension of median life span: 41.6%
Col4a3−/− mice [2]
  improvement of median survival over untreated mice: 28 days
  mean percentage lifespan extension: 41.93%

B2: IL-11: pleiotropic cytokine, member of the IL-6 family; human sequence SEQ ID NO:1 (protein)
chain: PGPPAGSPRVSSDPRADLDSAVLLTRSLLADTRQLAAQMRDKFPADGDHSLDSLPTLAMSAGTLGSLQLPGVLTRLRVDLMSYLRHVQWLRRAGGPSLKTLEPELGALQARLERLLRRLQLLMSRLALPQAAPDQPVIPLGPPASAWGSIRAAHAILGGLHLTLDWAVRGLLLLKTRL
IL-11Rα
  Kd: ~22 nM
